These results are taken from patent publication US20250092134A1.

Test [1] deals with TCR Vβ17 on T cells of PBMCs. The test is described as follows: flow cytometry on PBMCs, percent of cells stained. A general note: A flow cytometer gives signals particle by particle.
In test [2] the target is Vβ17 (on cells expressing Vβ17). The test is described as follows: cell-based or functional assay.

Bounds are passed on as bounds.

Sequence of TCR Vβ17 on T cells of PBMCs (A0A075B6N1 22-114): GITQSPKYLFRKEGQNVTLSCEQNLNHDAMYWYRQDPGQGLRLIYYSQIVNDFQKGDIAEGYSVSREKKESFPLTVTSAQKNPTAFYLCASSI
Sequence of Vβ17 (on cells expressing Vβ17) (A0A075B6N1 22-114): as above

Turning to “Goat anti mouse IgG PE, Southern Biotech, Cat: 1030-09 (antibody)”, the PBMC binding (%) in test [1] came to 0.13%. “Anti TCR Vβ17-PE Ab, Beckman Coulter, Cat: IM2048 (antibody)” displayed a PBMC binding (%) in test [1] of 3.4%. Also, the Cell Internalization (EC50) in test [2] was less than 0.07 nM.
